T1: MASP-3 catalytic fragment (CCP1-CCP2-SP) (UniProt P48740-2 299-728)
T1 sequence: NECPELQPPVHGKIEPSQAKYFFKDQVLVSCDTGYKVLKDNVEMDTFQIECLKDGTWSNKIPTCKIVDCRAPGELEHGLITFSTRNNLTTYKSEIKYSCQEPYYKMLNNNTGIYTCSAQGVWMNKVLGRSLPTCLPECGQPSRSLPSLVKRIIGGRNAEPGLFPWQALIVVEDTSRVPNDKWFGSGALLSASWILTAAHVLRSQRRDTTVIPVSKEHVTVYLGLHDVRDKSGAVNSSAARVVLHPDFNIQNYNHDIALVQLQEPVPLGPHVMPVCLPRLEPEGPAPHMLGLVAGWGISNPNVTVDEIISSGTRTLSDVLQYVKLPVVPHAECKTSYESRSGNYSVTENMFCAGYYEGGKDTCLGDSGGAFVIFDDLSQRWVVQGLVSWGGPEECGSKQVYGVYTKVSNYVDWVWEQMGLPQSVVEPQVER

T2: MASP-1 catalytic fragment (CCP1-CCP2-SP) (UniProt P48740 299-699)
T2 construct: MASP-1, active catalytic fragment containing the CCP1-CCP2-SP domains
T2 sequence: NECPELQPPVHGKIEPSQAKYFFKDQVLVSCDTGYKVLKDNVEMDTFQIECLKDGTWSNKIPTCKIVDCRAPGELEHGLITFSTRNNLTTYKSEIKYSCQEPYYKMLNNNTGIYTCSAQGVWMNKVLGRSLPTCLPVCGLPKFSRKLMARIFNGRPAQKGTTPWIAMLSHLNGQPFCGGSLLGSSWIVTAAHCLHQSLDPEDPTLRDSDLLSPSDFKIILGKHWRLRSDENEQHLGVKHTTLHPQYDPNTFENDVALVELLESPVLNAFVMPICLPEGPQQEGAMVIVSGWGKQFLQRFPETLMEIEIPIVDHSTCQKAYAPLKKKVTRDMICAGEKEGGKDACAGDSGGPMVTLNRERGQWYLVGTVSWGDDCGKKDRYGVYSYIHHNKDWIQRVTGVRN

T3: C1s catalytic fragment (CCP1-CCP2-SP) (UniProt P09871 292-688)
T3 construct: C1s, active catalytic fragment containing the CCP1-CCP2-SP domains
T3 sequence: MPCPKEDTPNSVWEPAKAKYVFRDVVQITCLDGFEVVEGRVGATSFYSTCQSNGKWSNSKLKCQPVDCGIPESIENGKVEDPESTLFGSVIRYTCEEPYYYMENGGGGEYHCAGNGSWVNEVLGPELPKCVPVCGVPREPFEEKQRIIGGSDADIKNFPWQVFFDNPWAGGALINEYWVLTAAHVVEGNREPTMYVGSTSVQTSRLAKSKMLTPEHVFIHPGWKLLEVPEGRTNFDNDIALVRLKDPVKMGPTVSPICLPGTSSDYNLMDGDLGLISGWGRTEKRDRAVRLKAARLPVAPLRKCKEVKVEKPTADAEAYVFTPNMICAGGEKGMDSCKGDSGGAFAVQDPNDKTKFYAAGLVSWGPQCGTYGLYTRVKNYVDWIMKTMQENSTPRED

B1: E. coli ecotin (natural protein)
chain: not shown
notes: also called recombinant E. coli ecotin
B2: P. aeruginosa ecotin (natural protein)
chain: not shown
notes: also called Pseudomonas aeruginosa ecotin ortholog
B3: L. major ecotin (ISP2) (natural protein)
chain: MPAGMSDAAGKTLADFKAPYPEPTSQQRRYVIFLDPKGDSKELNDYKVELIPGRVEKVDGTNVYRMGGNIEERTIDGWGYPYYIVTLTTMSGTLMMPLGDAALKRPRFVAMNTKNLYRYNSRLPIVVYMPKDGELRYRIWTVKSTGSGTAKSTKAREM
notes: His6-tag cleaved off with TEV protease; also called Leishmania major ISP2 ortholog; not shown: His6, N-terminal, cleaved
B4: Y. pestis ecotin (natural protein)
chain: DTPTPLNQQQPLEKIAPYPQAEKGMSRQVIFLEPQKDESRFKVELLIGKTLNVDCNRHMLGGNLETRTLSGWGFDYLVMDKISQPASTMMACPEDSKPQVKFVTANLGDAAMQRYNSRLPIVVYVPQGVEVKYRIWEAGEDIRSAQVK
notes: also called Yersinia pestis ecotin ortholog

How the values were obtained:
[1] = target: T1, MASP-3 catalytic fragment (CCP1-CCP2-SP); experiment: equilibrium enzyme inhibition titration (residual activity; Green and Work); tight-binding format: fixed MASP-3 incubated with increasing ecotin to equilibrium; 250 μM Z-L-Lys-SBzl + 40 μM Thiol Fluorescent Probe IV; 20 mM HEPES, 145 mM NaCl, 5 mM CaCl2, 0.05% Triton X-100, pH 7.5; details: both partners purified
[2] = target: T1, MASP-3 catalytic fragment (CCP1-CCP2-SP); experiment: cell-based or functional assay
[3] = target: T2, MASP-1 catalytic fragment (CCP1-CCP2-SP); experiment: equilibrium enzyme inhibition titration (residual activity; Green and Work); fixed protease incubated with increasing inhibitor to equilibrium; free enzyme read with 250 μM Z-L-Lys-SBzl + 500 μM DTNB; 20 mM HEPES, 145 mM NaCl, 5 mM CaCl2, 0.05% Triton X-100, pH 7.5; apparent KI corrected with KM where marked [a]; details: both partners purified
[4] = target: T4, MASP-2 catalytic fragment (CCP1-CCP2-SP) (UniProt O00187 298-686); experiment: as above; details: both partners purified
T4 construct: MASP-2, active catalytic fragment containing the CCP1-CCP2-SP domains

factor D = target: T5, factor D (human, UniProt P00746 26-253); experiment: as above; details: both partners purified
T5 construct: the KI was measured on recombinant FD; that the recombinant FD was made from it is surmised; also called FD; recombinant FD

[5] = target: T3, C1s catalytic fragment (CCP1-CCP2-SP); experiment: equilibrium enzyme inhibition titration (residual activity; Green and Work); fixed protease incubated with increasing ecotin to equilibrium; 250 μM Z-Gly-Arg-SBzl + 500 μM DTNB; 20 mM HEPES, 145 mM NaCl, 5 mM CaCl2, 0.05% Triton X-100, pH 7.5; apparent KI corrected with a KM from the literature; details: both partners purified
[6] = target: T4, MASP-2 catalytic fragment (CCP1-CCP2-SP); experiment: cell-based or functional assay
[7] = target: T1, MASP-3 catalytic fragment (CCP1-CCP2-SP); experiment: equilibrium enzyme inhibition titration (residual activity; Green and Work); fixed protease incubated with increasing inhibitor to equilibrium; free enzyme read with 250 μM Z-L-Lys-SBzl + 500 μM DTNB; 20 mM HEPES, 145 mM NaCl, 5 mM CaCl2, 0.05% Triton X-100, pH 7.5; apparent KI corrected with KM where marked [a]; details: both partners purified
[8] = target: T1, MASP-3 catalytic fragment (CCP1-CCP2-SP); experiment: […]; 20 mM HEPES, 145 mM NaCl, 5 mM CaCl2, 0.05% Triton X-100, pH 7.5; […]; details: both partners purified
[9] = target: T2, MASP-1 catalytic fragment (CCP1-CCP2-SP); experiment: as above; details: both partners purified
[10] = target: T4, MASP-2 catalytic fragment (CCP1-CCP2-SP); experiment: as above; details: both partners purified

T4 sequence (O00187 298-686): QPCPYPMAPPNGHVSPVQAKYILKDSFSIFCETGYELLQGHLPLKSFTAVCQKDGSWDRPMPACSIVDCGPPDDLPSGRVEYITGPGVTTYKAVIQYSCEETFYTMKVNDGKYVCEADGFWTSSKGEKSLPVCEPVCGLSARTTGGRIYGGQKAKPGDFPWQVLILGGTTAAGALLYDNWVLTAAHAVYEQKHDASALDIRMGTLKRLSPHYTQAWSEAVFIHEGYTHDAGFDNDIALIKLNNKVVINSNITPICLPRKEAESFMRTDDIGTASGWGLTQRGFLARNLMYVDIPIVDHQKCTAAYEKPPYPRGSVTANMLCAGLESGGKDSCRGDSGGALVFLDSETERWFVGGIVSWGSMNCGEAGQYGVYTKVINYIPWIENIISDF
T5 sequence (P00746 26-253): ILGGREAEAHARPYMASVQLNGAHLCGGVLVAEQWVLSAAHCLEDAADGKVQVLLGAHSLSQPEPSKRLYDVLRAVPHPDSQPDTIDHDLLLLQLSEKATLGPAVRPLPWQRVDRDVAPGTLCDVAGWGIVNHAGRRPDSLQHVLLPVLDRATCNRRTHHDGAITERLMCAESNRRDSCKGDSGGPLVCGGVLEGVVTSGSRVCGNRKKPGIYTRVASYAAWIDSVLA

Row | Binder | Ki [1] [nM] | half-life of Cy3-labelled pro-FD in NHS at 37 °C with 1 μM ecotin pre-incubated 10 min with the serum (3 hours without inhibitor) [2] [h] | Ki [3] [nM] | Ki [4] [nM] | Ki (factor D) [nM] | Ki [5] [nM] | IC50 of mannan-triggered LP-driven C3-deposition ELISA in 2% NHS (the most efficient LP inhibitor of the four orthologs) [6] [nM] | Ki [7] [nM] | Ki [8] [nM] | Ki [9] [nM] | Ki [10] [nM]
1 | B1 | 0.52 | 10 | 4200 | 11 | 4060 | 25200 ± 4450 | – | – | – | – | –
2 | B2 | – | – | 34 | 76 | – | – | 84 to 190 | 9.6 | – | – | –
3 | B3 | – | – | 2700 | 8.8 | – | – | – | 4.1 | – | – | –
4 | B4 | – | – | – | – | – | – | – | – | 800 | 35000 | 2.2
